Assay results: publication PMC5879659 (Proceedings of the National Academy of Sciences of the …, 2018)
Square brackets hold non-standard residues; d marks the D form. Ends that are not written are not given here. Hyp = O=C(O)[C@@H]1C[C@@H](O)CN1

Target: T1, HAESA LRR ectodomain (Arabidopsis thaliana, UniProt P47735 15-621)
T1 sequence (looked up): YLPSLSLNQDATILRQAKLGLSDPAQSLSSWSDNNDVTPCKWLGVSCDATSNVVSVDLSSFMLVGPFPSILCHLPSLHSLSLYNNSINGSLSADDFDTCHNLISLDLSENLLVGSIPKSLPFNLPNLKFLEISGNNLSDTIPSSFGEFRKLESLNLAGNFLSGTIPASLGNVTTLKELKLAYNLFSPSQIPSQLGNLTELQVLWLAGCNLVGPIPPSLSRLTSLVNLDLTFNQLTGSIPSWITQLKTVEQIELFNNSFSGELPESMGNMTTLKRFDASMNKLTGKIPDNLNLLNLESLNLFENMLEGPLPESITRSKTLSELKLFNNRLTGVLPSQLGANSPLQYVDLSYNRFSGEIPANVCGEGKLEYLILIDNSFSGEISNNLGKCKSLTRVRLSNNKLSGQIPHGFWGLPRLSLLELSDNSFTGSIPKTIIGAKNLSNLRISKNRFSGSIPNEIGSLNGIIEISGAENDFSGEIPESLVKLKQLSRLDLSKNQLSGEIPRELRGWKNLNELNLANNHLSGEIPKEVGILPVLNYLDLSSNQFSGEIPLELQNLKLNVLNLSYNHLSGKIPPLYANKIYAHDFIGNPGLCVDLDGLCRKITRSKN
Assay: grating-coupled interferometry

YVPIPPSA[Hyp]SKRHN [INFLORESCENCE DEFICIENT IN ABSCISSION (IDA) peptide, Y-IDA] was tested. Which Kd did it give?
Its Kd is roughly 30 µM.

And the koff?
Its koff is roughly 2 s⁻¹.

What about the kon of the same binder?
The kon was roughly 60000 M⁻¹ s⁻¹.
